Drawing on the supplement of paper PMC10065799, “High-throughput profiling of sequence recognition by tyrosine kinases and SH2 domains using bacterial peptide display” (eLife, 2023), this text covers SH2 binding enrichment and phosphorylation enrichment for nine sequences.

The target of one data set is c-Src SH2. In words: SH2 binding enrichment of the phosphorylated peptide, bacterial display (enrichment ratio); higher = better substrate or ligand; peptides without Tyr show the background.
The next data set has as its target Grb2 SH2 (UniProt P62993). The description is as above.
A further data set concerns the target SHP2-C SH2. The description is as above.
Another data set deals with Fyn (UniProt P06241). The data set is described as follows: phosphorylation enrichment, bacterial display (enrichment ratio); higher = better substrate or ligand; peptides without Tyr show the background.
Chain of Fyn (P06241 whole entry, looked up): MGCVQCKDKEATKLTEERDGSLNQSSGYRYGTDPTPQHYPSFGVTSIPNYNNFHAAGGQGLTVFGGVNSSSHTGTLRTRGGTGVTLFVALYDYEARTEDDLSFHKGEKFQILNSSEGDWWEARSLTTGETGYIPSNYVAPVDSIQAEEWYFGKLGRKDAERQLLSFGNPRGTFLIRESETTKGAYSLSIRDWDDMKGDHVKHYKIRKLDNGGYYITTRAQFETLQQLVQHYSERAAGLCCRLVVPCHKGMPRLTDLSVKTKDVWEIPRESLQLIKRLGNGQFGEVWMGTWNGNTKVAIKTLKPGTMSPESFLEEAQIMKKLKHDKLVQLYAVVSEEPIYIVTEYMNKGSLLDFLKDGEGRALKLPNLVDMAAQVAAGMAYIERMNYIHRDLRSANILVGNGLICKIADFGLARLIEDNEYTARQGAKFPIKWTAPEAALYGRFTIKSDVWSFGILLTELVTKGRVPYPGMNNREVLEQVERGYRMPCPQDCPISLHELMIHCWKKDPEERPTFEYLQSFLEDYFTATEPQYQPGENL
The target in another data set is MERTK (UniProt Q12866). The data set is described as above.
Chain of MERTK (Q12866 whole entry, looked up): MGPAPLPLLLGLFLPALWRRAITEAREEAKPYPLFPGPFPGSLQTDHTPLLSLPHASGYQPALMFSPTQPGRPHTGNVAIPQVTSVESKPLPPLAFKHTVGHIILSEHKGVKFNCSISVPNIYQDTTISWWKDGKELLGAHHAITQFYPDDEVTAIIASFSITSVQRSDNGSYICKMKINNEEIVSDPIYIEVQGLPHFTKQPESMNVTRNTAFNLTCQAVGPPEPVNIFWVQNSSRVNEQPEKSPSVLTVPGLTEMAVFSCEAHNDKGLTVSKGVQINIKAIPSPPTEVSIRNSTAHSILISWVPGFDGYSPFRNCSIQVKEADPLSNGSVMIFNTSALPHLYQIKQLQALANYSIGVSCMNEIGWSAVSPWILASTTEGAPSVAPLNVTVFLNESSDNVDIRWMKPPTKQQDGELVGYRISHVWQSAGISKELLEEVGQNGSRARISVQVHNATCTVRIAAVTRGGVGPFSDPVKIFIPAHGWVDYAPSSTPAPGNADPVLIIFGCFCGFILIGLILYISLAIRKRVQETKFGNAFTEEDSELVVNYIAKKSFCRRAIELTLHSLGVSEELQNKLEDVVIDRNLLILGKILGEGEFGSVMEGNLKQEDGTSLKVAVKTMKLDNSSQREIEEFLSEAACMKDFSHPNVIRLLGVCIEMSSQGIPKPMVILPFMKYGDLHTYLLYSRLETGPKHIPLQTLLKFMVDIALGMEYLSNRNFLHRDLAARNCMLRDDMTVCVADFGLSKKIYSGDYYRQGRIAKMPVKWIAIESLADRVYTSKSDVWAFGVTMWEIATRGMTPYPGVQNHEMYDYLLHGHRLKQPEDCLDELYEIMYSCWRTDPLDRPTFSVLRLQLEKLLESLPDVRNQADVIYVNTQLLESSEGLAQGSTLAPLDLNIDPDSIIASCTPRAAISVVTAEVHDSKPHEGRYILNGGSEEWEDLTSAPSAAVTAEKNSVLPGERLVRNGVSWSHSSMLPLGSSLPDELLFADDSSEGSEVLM
The target of a further data set is EPHB2 (UniProt P29323). Described as above.
Chain of EPHB2 (P29323 whole entry, looked up): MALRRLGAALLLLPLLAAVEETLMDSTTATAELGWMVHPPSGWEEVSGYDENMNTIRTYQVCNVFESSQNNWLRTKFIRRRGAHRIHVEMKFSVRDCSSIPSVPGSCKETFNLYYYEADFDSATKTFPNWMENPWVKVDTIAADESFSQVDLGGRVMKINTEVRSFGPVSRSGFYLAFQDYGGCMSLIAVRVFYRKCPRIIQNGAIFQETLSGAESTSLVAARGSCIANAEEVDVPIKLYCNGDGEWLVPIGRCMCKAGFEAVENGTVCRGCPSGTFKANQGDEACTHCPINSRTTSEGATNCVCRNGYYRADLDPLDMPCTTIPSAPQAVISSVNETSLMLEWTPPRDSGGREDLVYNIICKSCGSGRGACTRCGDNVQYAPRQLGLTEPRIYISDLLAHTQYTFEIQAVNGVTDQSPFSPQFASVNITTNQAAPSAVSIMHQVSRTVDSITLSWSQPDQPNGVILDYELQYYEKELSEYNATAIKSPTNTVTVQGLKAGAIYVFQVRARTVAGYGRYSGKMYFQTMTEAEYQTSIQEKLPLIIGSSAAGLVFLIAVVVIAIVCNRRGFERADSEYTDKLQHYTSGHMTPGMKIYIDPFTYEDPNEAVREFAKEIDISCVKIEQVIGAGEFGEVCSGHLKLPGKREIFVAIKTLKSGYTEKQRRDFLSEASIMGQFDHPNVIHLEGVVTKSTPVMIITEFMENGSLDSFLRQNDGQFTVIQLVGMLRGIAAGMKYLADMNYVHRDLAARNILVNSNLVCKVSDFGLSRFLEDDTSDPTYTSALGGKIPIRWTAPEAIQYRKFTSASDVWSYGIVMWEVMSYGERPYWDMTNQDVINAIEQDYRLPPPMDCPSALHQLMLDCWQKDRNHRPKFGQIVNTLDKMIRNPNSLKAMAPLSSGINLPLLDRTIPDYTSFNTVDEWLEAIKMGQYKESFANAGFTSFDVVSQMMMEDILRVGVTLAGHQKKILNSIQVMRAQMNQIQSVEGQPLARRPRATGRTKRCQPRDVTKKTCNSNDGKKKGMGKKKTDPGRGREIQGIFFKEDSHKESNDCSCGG
The next data set addresses Hck (UniProt P08631). The data set is described as above.
The target of another data set is Jak2 (UniProt O60674). The data set is described as above.
The test system of the next data set is c-Src. The data set is described as above.
The next data set concerns c-Abl (mouse). The description is as above.
The next data set relates to AncSZ. Described as above.
A further data set relates to Fer (mouse). Described as above.
The target of the next data set is Fes (UniProt P07332). The description is as above.
Chain of Fes (P07332 whole entry, looked up): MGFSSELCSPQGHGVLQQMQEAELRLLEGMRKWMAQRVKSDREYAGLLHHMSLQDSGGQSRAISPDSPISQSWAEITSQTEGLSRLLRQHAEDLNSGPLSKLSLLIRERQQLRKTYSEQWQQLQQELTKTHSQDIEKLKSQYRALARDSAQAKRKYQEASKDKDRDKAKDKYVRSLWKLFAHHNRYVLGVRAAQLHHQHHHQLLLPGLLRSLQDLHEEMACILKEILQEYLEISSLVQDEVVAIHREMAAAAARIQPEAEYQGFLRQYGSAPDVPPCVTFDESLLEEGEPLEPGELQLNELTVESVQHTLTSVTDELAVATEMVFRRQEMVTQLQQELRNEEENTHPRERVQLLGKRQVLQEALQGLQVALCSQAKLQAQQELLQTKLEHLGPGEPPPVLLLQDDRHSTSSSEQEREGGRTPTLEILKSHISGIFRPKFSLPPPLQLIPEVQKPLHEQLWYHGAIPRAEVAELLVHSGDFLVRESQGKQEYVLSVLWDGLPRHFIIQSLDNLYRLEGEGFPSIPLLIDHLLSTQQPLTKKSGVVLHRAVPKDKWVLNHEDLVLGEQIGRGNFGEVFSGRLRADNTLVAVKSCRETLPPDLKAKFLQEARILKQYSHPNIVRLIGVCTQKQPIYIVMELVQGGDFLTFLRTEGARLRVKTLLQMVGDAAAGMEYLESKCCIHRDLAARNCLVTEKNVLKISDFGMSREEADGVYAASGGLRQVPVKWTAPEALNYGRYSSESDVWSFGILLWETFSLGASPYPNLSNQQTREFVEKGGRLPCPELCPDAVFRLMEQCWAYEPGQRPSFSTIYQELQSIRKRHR
A further data set deals with FGFR3 (UniProt P22607). The data set is described as above.
The target in a further data set is FGFR1 (UniProt P11362). The description is as above.
Chain of FGFR1 (P11362 whole entry, looked up): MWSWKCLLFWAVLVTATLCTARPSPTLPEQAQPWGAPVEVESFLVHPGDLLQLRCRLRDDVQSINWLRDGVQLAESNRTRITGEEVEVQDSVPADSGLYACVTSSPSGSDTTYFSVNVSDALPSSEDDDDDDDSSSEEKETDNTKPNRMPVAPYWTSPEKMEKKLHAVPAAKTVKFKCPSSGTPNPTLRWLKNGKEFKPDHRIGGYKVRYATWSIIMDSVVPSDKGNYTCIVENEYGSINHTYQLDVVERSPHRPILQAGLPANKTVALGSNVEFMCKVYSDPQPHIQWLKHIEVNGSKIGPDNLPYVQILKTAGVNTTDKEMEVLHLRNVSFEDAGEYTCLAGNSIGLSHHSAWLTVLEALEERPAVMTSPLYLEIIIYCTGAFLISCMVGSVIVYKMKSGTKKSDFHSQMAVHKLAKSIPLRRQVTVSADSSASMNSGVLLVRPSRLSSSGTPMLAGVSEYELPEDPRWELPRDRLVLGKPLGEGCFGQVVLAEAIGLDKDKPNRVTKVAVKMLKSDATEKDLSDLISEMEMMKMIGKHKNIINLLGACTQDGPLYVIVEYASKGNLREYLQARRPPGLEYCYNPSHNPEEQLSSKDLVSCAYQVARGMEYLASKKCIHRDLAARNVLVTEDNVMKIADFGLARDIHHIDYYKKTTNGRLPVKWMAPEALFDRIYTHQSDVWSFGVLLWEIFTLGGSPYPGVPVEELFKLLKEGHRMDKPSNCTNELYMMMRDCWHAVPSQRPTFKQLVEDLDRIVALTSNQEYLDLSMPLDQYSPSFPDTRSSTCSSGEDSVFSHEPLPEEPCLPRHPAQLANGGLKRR
The next data set addresses EPHB1 (UniProt P54762). Described as above.
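Wherever SH2 binding enrichment of the phosphorylated peptide, bacterial display is given: peptide library displayed on the E. coli surface as eCPX fusions, selected cells deep-sequenced, score is each peptide's frequency after selection divided by its frequency in the input.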
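Wherever phosphorylation enrichment, bacterial display is given: 11-residue human phosphosite peptides and single-mutation variants displayed on the E. coli surface, counted by deep sequencing, each peptide's frequency after selection divided by its frequency in the unselected input library; frequency after pTyr selection over input frequency; kinase dosed for 20-30% of maximal phosphorylation in three min.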

Chain of Hck (P08631 whole entry, looked up): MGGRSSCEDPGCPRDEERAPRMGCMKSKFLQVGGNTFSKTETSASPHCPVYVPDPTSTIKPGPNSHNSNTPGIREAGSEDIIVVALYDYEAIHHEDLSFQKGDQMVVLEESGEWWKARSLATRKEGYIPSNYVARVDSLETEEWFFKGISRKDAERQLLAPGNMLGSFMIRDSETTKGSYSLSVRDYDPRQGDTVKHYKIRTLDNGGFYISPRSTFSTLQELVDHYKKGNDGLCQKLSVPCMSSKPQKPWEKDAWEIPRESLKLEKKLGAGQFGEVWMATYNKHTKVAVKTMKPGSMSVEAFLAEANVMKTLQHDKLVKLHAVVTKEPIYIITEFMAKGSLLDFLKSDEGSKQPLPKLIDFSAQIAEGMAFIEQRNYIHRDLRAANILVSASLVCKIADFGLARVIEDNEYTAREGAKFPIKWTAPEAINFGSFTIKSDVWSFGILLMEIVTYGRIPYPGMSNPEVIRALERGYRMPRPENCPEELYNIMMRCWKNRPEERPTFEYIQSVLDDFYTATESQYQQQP
Chain of Grb2 SH2 (P62993 whole entry, looked up): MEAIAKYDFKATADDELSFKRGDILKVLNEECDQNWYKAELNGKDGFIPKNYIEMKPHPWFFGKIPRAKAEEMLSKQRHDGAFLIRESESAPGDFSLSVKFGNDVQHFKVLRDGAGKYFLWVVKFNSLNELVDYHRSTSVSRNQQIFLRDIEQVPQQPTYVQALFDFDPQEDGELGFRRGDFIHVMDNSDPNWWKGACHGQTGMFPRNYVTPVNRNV

In the case of NGTVSYAIVAG [CDH23_Y1672_T1671S], the SH2 binding enrichment in the data set with c-Src SH2 was 3.88; with Grb2 SH2 it was 0.873; with SHP2-C SH2, 46.5. For the same sequence, the phosphorylation enrichment with Fyn came to 0.638; in the data set with MERTK, 0.792; in the data set with EPHB2, 0.575; with Hck, 0.479; with Jak2 it was 0.703; in the data set with c-Src, 0.456. Moreover, the phosphorylation enrichment in the data set with c-Abl (mouse) worked out at 0.591; in the data set on AncSZ, 0.778; with Fer (mouse) it was 0.448; with Fes, 0.961; with FGFR3, 0.593; with FGFR1 it was 0.496. In addition, the phosphorylation enrichment with EPHB1 was 0.661.
Take KAIMTYVSSFY [ACTN4_Y260]: the SH2 binding enrichment in the data set with c-Src SH2 came out at 0.564; with Grb2 SH2, 0.86; in the data set with SHP2-C SH2 it was 0.987. Also, the phosphorylation enrichment with Fyn came to 0.536; with MERTK, 0.424; with EPHB2 it was 0.666; in the data set with Hck, 0.554; with Jak2, 1.04; in the data set on c-Src, 0.612. Also, the phosphorylation enrichment in the data set on c-Abl (mouse) came out at 0.755; in the data set with AncSZ it was 0.976; in the data set with Fer (mouse), 0.505; with Fes, 1.05; in the data set with FGFR3, 0.719; with FGFR1, 0.489. In the data set with EPHB1, the phosphorylation enrichment was 0.644.
For GSTLSYGRDGR [MATR3_Y158_P154S], the SH2 binding enrichment with c-Src SH2 was found to be 0.465; in the data set with Grb2 SH2, 0.793; with SHP2-C SH2 it was 0.642. The phosphorylation enrichment in the data set with Fyn stood at 0.353; with MERTK, 0.374; in the data set with EPHB2, 0.343; in the data set with Hck, 0.376; with Jak2 it was 0.452; with c-Src, 0.382. The phosphorylation enrichment with c-Abl (mouse) stood at 0.392; in the data set on AncSZ, 0.545; in the data set on Fer (mouse), 0.374; with Fes, 0.516; in the data set with FGFR3, 0.466; with FGFR1, 0.389. The phosphorylation enrichment with EPHB1 was 0.339.
Consider RMLREYQELMS [KRT74_Y425], for which the SH2 binding enrichment with c-Src SH2 turned out to be 5.24; with Grb2 SH2 it was 1.13; with SHP2-C SH2 it was 0.962. Moreover, the phosphorylation enrichment in the data set with Fyn worked out at 0.699; in the data set with MERTK it was 0.527; with EPHB2 it was 0.432; with Hck it was 0.532; in the data set with Jak2, 0.611; with c-Src, 0.57. In addition, the phosphorylation enrichment in the data set with c-Abl (mouse) was 0.663; in the data set on AncSZ it was 0.821; in the data set on Fer (mouse), 0.357; with Fes, 0.837; with FGFR3, 0.555; in the data set with FGFR1, 0.95. Moreover, in the data set with EPHB1, the phosphorylation enrichment stood at 0.66.
Turning to EDNPEYMRLRN [ADD2_Y31_D28N], the values for the SH2 binding enrichment with c-Src SH2, with Grb2 SH2 and in the data set with SHP2-C SH2 were 0.511, 0.85 and 0.73, respectively. Further, the phosphorylation enrichment was 0.444 with Fyn; 0.408 with MERTK; 0.515 with EPHB2; 0.489 with Hck; 1.05 with Jak2; 0.459 with c-Src. Moreover, the phosphorylation enrichment in the data set with c-Abl (mouse) was found to be 0.713; in the data set on AncSZ, 1.09; with Fer (mouse), 0.447; with Fes, 0.969; with FGFR3, 0.653; with FGFR1, 0.547. Besides, the phosphorylation enrichment with EPHB1 was found to be 0.518.
Take DYYDLYGGEKF [PTPN11_Y66]: the figures for the SH2 binding enrichment with c-Src SH2, with Grb2 SH2 and with SHP2-C SH2 were 0.734, 1.21 and 0.68, respectively. Besides, the phosphorylation enrichment with Fyn is 5.73; with MERTK it was 3.7; with EPHB2, 6.92; in the data set with Hck it was 5.08; with Jak2, 2.7; in the data set with c-Src, 4.69. Moreover, the phosphorylation enrichment in the data set with c-Abl (mouse) is 0.74; in the data set on AncSZ it was 2.92; with Fer (mouse) it was 1.61; with Fes, 1.2; with FGFR3, 12.9; with FGFR1 it was 13.4. The phosphorylation enrichment in the data set with EPHB1 is 6.42.
Turning to NFDRIYIFHLR [MYOF_Y1137_V1136I_YF], the SH2 binding enrichment was 1.15 with c-Src SH2, 1.59 in the data set with Grb2 SH2 and 2.07 with SHP2-C SH2. Also, the phosphorylation enrichment with Fyn was 0.605; with MERTK it was 0.524; with EPHB2, 0.705; with Hck, 0.507; with Jak2, 1.46; in the data set on c-Src, 0.724. Besides, the phosphorylation enrichment worked out at 0.993 in the data set with c-Abl (mouse); 1.53 in the data set with AncSZ; 0.606 in the data set with Fer (mouse); 1.42 in the data set with Fes; 0.791 with FGFR3; 0.594 with FGFR1. For the same sequence, the phosphorylation enrichment with EPHB1 stood at 0.732.
With ENELTYFCFKK [CD59_Y86_C89Y_YF], the results for the SH2 binding enrichment with c-Src SH2, with Grb2 SH2 and in the data set with SHP2-C SH2 were 0.414, 0.746 and 0.6, respectively. Further, the phosphorylation enrichment with Fyn worked out at 4.33; with MERTK it was 1.16; with EPHB2, 0.667; with Hck, 3.63; with Jak2 it was 2.43; with c-Src, 4.58. For the same sequence, the phosphorylation enrichment was 3.38 with c-Abl (mouse); 1.71 in the data set on AncSZ; 0.541 with Fer (mouse); 1.57 in the data set with Fes; 1.29 with FGFR3; 1.06 in the data set with FGFR1. Also, in the data set with EPHB1, the phosphorylation enrichment turned out to be 0.796.
As for KNSFKYFMSDD [ATRX_Y203_C200S_YF], the SH2 binding enrichment with c-Src SH2 is 0.556; in the data set with Grb2 SH2, 0.942; with SHP2-C SH2, 0.587. For the same sequence, the phosphorylation enrichment is 0.392 with Fyn; 0.418 with MERTK; 0.55 in the data set with EPHB2; 0.478 with Hck; 0.869 with Jak2; 0.425 in the data set on c-Src. The phosphorylation enrichment in the data set on c-Abl (mouse) was 0.628; in the data set on AncSZ it was 0.856; in the data set with Fer (mouse) it was 0.412; in the data set with Fes, 1.02; with FGFR3, 0.638; with FGFR1, 0.416. The phosphorylation enrichment with EPHB1 was 0.475.
